The test concerns the target microtubules (human (endogenous in HEK293T)) (UniProt P68363). As to the kind of experiment: co-sedimentation; microtubule co-sedimentation assay of HEK293T cells with overexpressed Climp63-HA and GFP or GFP-Calu1; 37°C; P pellet = microtubule fraction, S supernatant = free tubulin fraction.
Chain of UniProt P68363 (P68363 whole entry, chain 1 of 2): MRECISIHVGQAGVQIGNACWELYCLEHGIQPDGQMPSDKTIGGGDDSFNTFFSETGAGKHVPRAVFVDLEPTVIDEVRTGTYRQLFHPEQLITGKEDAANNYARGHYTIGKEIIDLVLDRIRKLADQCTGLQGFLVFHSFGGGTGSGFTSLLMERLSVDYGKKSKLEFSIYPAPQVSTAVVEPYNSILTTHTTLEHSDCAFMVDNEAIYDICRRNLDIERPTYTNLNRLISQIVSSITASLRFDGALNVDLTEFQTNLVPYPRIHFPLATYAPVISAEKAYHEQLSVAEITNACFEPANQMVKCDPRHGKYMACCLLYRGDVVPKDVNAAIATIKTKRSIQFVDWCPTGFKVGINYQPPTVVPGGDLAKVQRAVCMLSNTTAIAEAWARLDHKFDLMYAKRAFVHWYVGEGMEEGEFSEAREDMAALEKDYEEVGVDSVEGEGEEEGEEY
Chain of UniProt P68363 (P07437 whole entry, chain 2 of 2, further chain): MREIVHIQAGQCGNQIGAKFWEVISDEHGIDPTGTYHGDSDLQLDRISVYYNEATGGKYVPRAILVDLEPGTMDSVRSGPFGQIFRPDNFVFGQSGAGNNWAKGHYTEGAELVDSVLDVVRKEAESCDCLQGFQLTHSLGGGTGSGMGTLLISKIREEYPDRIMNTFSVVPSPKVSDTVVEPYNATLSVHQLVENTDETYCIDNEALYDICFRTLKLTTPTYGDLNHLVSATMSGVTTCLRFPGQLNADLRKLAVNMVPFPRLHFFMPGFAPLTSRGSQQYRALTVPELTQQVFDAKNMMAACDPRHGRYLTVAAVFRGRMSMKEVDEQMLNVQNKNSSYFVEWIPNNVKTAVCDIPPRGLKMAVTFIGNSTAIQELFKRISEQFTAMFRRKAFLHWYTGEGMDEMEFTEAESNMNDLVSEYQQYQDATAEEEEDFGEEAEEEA

Chain of Climp63-HA (Q07065 whole entry): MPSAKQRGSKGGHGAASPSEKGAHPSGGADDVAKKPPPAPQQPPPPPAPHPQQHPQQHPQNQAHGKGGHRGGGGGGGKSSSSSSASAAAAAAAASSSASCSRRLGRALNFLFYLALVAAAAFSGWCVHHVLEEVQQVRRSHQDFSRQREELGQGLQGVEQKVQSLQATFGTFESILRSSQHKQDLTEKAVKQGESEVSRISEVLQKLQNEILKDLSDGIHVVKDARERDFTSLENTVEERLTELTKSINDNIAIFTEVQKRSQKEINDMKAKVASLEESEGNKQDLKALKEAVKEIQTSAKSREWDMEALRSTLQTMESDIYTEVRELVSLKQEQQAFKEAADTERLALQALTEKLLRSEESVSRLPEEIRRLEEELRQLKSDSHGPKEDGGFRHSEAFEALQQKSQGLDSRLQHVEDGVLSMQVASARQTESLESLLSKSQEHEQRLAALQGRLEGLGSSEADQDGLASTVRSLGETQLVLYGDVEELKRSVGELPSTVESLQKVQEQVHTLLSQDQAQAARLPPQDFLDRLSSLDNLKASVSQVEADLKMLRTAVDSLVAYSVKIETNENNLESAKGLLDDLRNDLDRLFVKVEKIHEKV

Substance “Climp63-HA (from UniProt Q07065 1-602) (natural protein)” yielded a percent of Climp63 in the pellet (microtubule fraction) at 37°C, GFP overexpressed of 60% and a percent of Climp63 in the pellet (microtubule fraction) at 37°C, GFP-Calu1 overexpressed of 36%.
